Test results published in publication doi:10.1101/2025.07.03.662971.

Legend:
[1] = molecular target: FITC labeled GKAP C-terminus peptide (CT12) (human); assay: fluorescence polarisation
[2] = molecular target: 6xHis-tagged GH1 or CT43 protein (ligand of the Ni-NTA BLI) (rat) (UniProt P97836); assay: BLI
[3] = molecular target: GST-tagged 12 amino acid ARAP3 peptide (human); assay: BLI
[4] = molecular target: GST-tagged 12 amino acid ATG13 peptide (human); assay: BLI
[5] = molecular target: GST-tagged 12 amino acid mTOR peptide (human); assay: BLI
[6] = molecular target: GST-tagged 12 amino acid βPIX peptide (human); assay: BLI

Chain of 6xHis-tagged GH1 or CT43 protein (ligand of the Ni-NTA BLI) (rat) (P97836 807-992): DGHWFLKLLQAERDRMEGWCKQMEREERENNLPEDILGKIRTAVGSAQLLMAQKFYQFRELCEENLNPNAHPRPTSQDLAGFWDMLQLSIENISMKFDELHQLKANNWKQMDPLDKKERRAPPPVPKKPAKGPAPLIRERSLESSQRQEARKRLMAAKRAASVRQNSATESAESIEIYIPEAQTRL

Row | Substance | Kd [1] [µM] | Kd [2] [µM] | further results
1 | Shank1-PDZ R679W variant (domain or fragment) | 325 | 14.5 | 
2 | wild type Shank1-PDZ domain (domain or fragment) | 4.59 | 1.5 | Kd [3]: 35.8 µM; Kd [4]: 39.1 µM; Kd [5]: 720 µM; Kd [6]: 23.2 µM
3 | Shank1-PDZ R743H variant (domain or fragment) | 7.62 |  | 
4 | Shank1-PDZ R736Q variant (domain or fragment) | 2.55 |  | 

Continued, in another order:

Row | Kd [1] [µM] | Kd [2] [µM] | Substance | further results
5 | 10.6 |  | Shank1-PDZ G734S variant (domain or fragment) | 
6 | 16.9 |  | Shank1-PDZ V677M variant (domain or fragment) | 
